Test results reported in paper PMC4835091.

Tests used:
ZapD (purified), P36680 = molecular target: T1, ZapD (purified), P36680; experiment: co-sedimentation assay, SDS-PAGE quantification; details: chain shown with the change, 50 mM K-MOPS pH 6.5, 50 mM KCl, 2.5 mM MgCl2, 1 mM GTP, 3 µM BSA, read off a plot
T1 chain: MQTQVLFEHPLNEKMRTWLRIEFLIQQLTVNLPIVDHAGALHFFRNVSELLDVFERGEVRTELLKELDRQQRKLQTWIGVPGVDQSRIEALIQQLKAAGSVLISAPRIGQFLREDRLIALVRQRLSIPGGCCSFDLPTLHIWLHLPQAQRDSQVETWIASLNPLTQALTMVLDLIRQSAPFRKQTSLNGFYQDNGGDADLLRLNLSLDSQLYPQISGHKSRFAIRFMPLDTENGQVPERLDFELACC

[1] = molecular target: T2, FtsZ(NRNKRG) (purified), P0A9A6; experiment: sedimentation (co-pelleting) assay, SDS-PAGE quantification; details: chain shown with the change, 50 mM K-MOPS pH 6.5, 50 mM KCl, 2.5 mM MgCl2, 1 mM GTP, 3 µM BSA, read off a plot
T2 chain: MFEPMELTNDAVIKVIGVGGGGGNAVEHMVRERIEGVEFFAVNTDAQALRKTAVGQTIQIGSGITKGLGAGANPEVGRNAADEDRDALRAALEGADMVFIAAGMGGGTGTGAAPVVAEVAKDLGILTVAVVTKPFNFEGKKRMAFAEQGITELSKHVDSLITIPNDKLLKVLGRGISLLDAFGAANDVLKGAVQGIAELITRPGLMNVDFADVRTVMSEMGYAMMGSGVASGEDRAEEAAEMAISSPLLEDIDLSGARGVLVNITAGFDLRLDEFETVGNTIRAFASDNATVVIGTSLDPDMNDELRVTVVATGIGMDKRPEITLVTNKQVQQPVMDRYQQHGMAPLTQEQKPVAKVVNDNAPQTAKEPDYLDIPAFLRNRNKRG

- response (% ZapD in pellet) (ZapD (purified), P36680; 5 µM FtsZ with ZapD at 1:0.2, parent: est. 62): 17
- response (% ZapD in pellet) (ZapD (purified), P36680; 5 µM FtsZ with ZapD at 1:1, parent: est. 55): 23
- response (% FtsZ in pellet) ([1]; 5 µM FtsZ with ZapD at 1:0.2, parent: est. 44): 34
- response (% FtsZ in pellet) ([1]; 5 µM FtsZ with ZapD at 1:1, parent: est. 73): 36
- response (% FtsZ in pellet) ([1]; 5 µM FtsZ, no ZapD, parent: est. 26): 31
B1: FtsZ (purified, WT), P0A9A6 CTV KQAD (380-383) replaced by NRNKRG (protein)
chain: T2 chain
